Measured values: US20120003684A1, “Method and Means for Detecting the Activity of Osteoclasts” (TECHNISCHE UNIVERSITAET DRESDEN, priority 2009, published 2012)

Columns and labels:
[1] = test system: osteoclasts differentiated by RANKL from mouse osteoclast precursor cell line RAW 264.7; test: osteoclast resorption assay on bio-mineralized matrix, inhibition study (FIG. 4); type: cell-based; settings: RAW 264.7 differentiated by RANKL addition (40 ng/ml)
Description: Moreover, particularly in medical research the examination of inhibiting materials or activators of osteoclast activity is especially of interest. As an example, in FIG. 4 it is shown that the osteoclast activity depends on the inhibitor interferon-y. The osteoclasts were differentiated by RANKL addition (40 ng/ml)) from a mouse osteoclast precursor cell line (RAW 264.7). […] Accordingly, the invention can also be utilized for inhibition studies in relation to osteoclast resorption activity.
For the synthesis of a bone-like physiological matrix, the human osteoblast precursor cell line SAOS-2 (DSMZ ACC 243, DSMZ, Braunschweig) is used in this embodiment. The cells are seeded on cell culturing plates. The differentiation of the cells is realized by addition of ascorbate (300 μmol/l) and β-glycerophosphate (10 mmol/l) to the medium (alpha MEM, Biochrom, 10% FCS). […]
(§1) The resorption assay is based on the combination of two methods with each other. […] For determining the resorption surface area the dried plates were subsequently scanned by a transmitted light scanner and evaluated e.g. by means of Image Quant. In this connection, the scanned surface area was determined and white surfaces differentiated from black surfaces. The volume of the white surface area can then be calculated by means of the calibration line (see FIG. 2) into the actual resorted surface area.

[2] = test system: primary mouse osteoclast precursor cells (primary mouse bone marrow monocytes); test: osteoclast resorption assay on bio-mineralized matrix, MCSF dependency (FIG. 1); type: cell-based; settings: RANKL (40 ng/ml) present, as a function of MCSF concentration
Text: The sequence is divided into two phases. In phase I, the matrix synthesis with osteoblasts occurs; the latter, after production of the matrix (approximately 25 days), are removed from the matrix. The subsequent phase II encompasses the use of the matrix for the osteoclast resorption assay. In this connection, the method in this example was employed in order to examine the resorption activity of primary mouse osteoclast precursor cells (primary mouse bone marrow monocytes) as a function of the concentration of MCSF (macrophage colony-stimulating factor).
For the synthesis of a bone-like physiological matrix, the human osteoblast precursor cell line SAOS-2 (DSMZ ACC 243, DSMZ, Braunschweig) is used in this embodiment. The cells are seeded on cell culturing plates. […]
as §1

B1: interferon-y: inhibitor of osteoclast activity (protein, UniProt P01579 24-161, looked up)
Interferon gamma: QDPYVKEAENLKKYFNAGHSDVADNGTLFLGILKNWKEESDRKIMQSQIVSFYFKLFKNFKDDQSIQKSVETIKEDMNVKFFNSNKKKRDDFEKLTNYSVTDLNVQRKAIHELIQVMAELSPAAKTGKRKRSQMLFRG
With B1 the “osteoclast activity (resorption activity)” value [1] was “concentration-dependent inhibition”.

B2: MCSF: macrophage colony-stimulating factor, cytokine added for osteoclast differentiation (protein, UniProt P09603 33-554, looked up)
Macrophage colony-stimulating …: EEVSEYCSHMIGSGHLQSLQRLIDSQMETSCQITFEFVDQEQLKDPVCYLKKAFLLVQDIMEDTMRFRDNTPNAIAIVQLQELSLRLKSCFTKDYEEHDKACVRTFYETPLQLLEKVKNVFNETKNLLDKDWNIFSKNCNNSFAECSSQDVVTKPDCNCLYPKAIPSSDPASVSPHQPLAPSMAPVAGLTWEDSEGTEGSSLLPGEQPLHTVDPGSAKQRPPRSTCQSFEPPETPVVKDSTIGGSPQPRPSVGAFNPGMEDILDSAMGTNWVPEEASGEASEIPVPQGTELSPSRPGGGSMQTEPARPSNFLSASSPLPASAKGQQPADVTGTALPRVGPVRPTGQDWNHTPQKTDHPSALLRDPPEPGSPRISSLRPQGLSNPSTLSAQPQLSRSHSSGSVLPLGELEGRRSTRDRRSPAEPEGGPASEGAARPLPRFNSVPLTDTGHERQSEGSFSPQLQESVFHLLVPSVILVLLAVGGLLFYRWRRRSHQEPQRADSPLEQPEGSPLTQDDRQVELPV
With B2 the “resorption activity of the differentiated osteoclasts” value [2] was “depends on the quantity of added MCSF”.
